Measurements as given in US20220267427A1 (SYSMEX, published 2022).
Where no end group is shown, it is not given here. The star is where a group is joined. Biotin = O=C1N[C@H]2[C@H](CS[C@H]2CCCCC(=O)*)N1

T1: Peptide 25 (human)
T1 peptide: Biotin-VKLEAEIATYRRLLEDGE

T2: Peptide 27 (human)
T2 peptide: Biotin-LLEDGEDFNLGDALD

T3: Peptide 26 (human)
T3 peptide: Biotin-IATYRRLLEDGEDFNLGD

T4: fCK18 in apoptosis-induced HepG2 cell culture supernatant (human, UniProt P05783 239-397)
T4 construct: Natural CK18 fragment from the culture supernatant of apoptosis-induced HepG2 cells (band around 18 KDa); also called fCK18 in apoptosis-inducing cells
T4 sequence: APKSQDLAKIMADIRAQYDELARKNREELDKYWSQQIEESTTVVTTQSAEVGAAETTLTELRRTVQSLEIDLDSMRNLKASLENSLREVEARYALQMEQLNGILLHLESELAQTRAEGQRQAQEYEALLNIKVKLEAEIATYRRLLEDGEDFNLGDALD

T5: Peptide 18 (human)
T5 peptide: Biotin-ARYALQMEQLNGILLHLE

T6: Peptide 16 (human)
T6 peptide: Biotin-KASLENSLREVEARYALQ

T7: Peptide 5 (human)
T7 peptide: Biotin-DIRAQYDELARKNREELD

T8: Peptide 17 (human)
T8 peptide: Biotin-SLREVEARYALQMEQLNG

T9: Peptide 10 (human)
T9 peptide: Biotin-VVTTQSAEVGAAETTLTE

T10: Peptide 9 (human)
T10 peptide: Biotin-IEESTTVVTTQSAEVGAA

T11: Peptide 15 (human)
T11 peptide: Biotin-DSMRNLKASLENSLREVE

T12: Peptide 3 (human)
T12 peptide: Biotin-APKSQDLAKIMADIRAQY

T13: Peptide 12 (human)
T13 peptide: Biotin-ETTLTELRRTVQSLEIDL

T14: Peptide 7 (human)
T14 peptide: Biotin-NREELDKYWSQQIEESTT

T15: Peptide 13 (human)
T15 peptide: Biotin-LRRTVQSLEIDLDSMRNL

T16: Peptide 14 (human)
T16 peptide: Biotin-SLEIDLDSMRNLKASLEN

T17: Peptide 4 (human)
T17 peptide: Biotin-LAKIMADIRAQYDELARK

T18: Peptide 11 (human)
T18 peptide: Biotin-AEVGAAETTLTELRRTVQ


Assays:
Peptide 25 = molecular target: T1, Peptide 25; experiment: solid phase ELISA; biotinylated peptide on plate, antibody 2 ug/ml
Procedure: (§1) (1) The peptides shown in Table 2 were synthesized, and biotin was added to the N-terminal side. (2) The synthesized peptides were dissolved in 80% DMSO solution and further diluted to 1 μg/ml with PBST. (3) After washing an ELISA plate three times with PBST, a biotinylated peptide was added thereto at 100 μL/well, and the plate was allowed to stand at room temperature for 1 hour to immobilize the peptide. Thereafter, the plate was washed three times with PBST, and Buffer I′ (10 mM NaH₂PO₄.2H₂O, 149.7 mM NaCl, 2.5 mM EDTA 2Na, 0.10% BSA, pH 7.0) was added thereto at 200 μL/well to prepare a plate stored at 4° C. overnight. (4) The plate was washed three times with PBST, and an antibody diluted to 2 μg/ml was added thereto at 50 μL/well, followed by shaking at room temperature for 1 hour. (5) The plate was washed three times with PBST, and an Anti-Mouse IgG POD antibody diluted about 5000 fold with Buffer I′ (10 mM NaH₂PO₄.2H₂O, 149.7 mM NaCl, 2.5 mM EDTA 2Na, 0.10% BSA, pH 7.0) was added thereto at 50 μL/well, followed by shaking at room temperature for 1 hour. (6) The plate was washed three times with PBST, TMB Mix (1-step Ultra TMB-ELISA (Thermo Scientific):3% H₂O₂: Phosphate-Citrate buffer (Sigma)=15:0.15:14.85) was added thereto at 100 μL/well, and the mixture was reacted at room temperature for 10 minutes. Thereafter, 1 M H₂SO₄ was added thereto at 100 μL/well to stop the reaction. (7) Absorbance of the reaction solution at 450 nm was measured with a plate reader.

Peptide 27 = molecular target: T2, Peptide 27; experiment: as above
Procedure: as §1

Peptide 26 = molecular target: T3, Peptide 26; experiment: as above
Procedure: as §1

[1] = molecular target: T4, fCK18 in apoptosis-induced HepG2 cell …; experiment: HISCL sandwich immunoassay; K18-624 magnetic microbeads capture, K18-328Fab-ALP detector; fCK18 60.73 ng/mL
Peptide 18 = molecular target: T5, Peptide 18; experiment: solid phase ELISA; biotinylated peptide on plate, antibody 2 ug/ml
Procedure: as §1

Peptide 16 = molecular target: T6, Peptide 16; experiment: as above
Procedure: as §1

Peptide 5 = molecular target: T7, Peptide 5; experiment: as above
Procedure: as §1

Peptide 17 = molecular target: T8, Peptide 17; experiment: as above
Procedure: as §1

Peptide 8 = Peptide 8 (human, biotin added to the N-terminal side); experiment: as above
Procedure: as §1

Peptide 10 = molecular target: T9, Peptide 10; experiment: as above
Procedure: as §1

Peptide 9 = molecular target: T10, Peptide 9; experiment: as above
Procedure: as §1

Peptide 15 = molecular target: T11, Peptide 15; experiment: as above
Procedure: as §1

Peptide 3 = molecular target: T12, Peptide 3; experiment: as above
Procedure: as §1

Peptide 12 = molecular target: T13, Peptide 12; experiment: as above
Procedure: as §1

Peptide 7 = molecular target: T14, Peptide 7; experiment: as above
Procedure: as §1

Peptide 6 = Peptide 6 (human, biotin added to the N-terminal side); experiment: as above
Procedure: as §1

Peptide 13 = molecular target: T15, Peptide 13; experiment: as above
Procedure: as §1

Peptide 14 = molecular target: T16, Peptide 14; experiment: as above
Procedure: as §1

Peptide 4 = molecular target: T17, Peptide 4; experiment: as above
Procedure: as §1

Peptide 11 = molecular target: T18, Peptide 11; experiment: as above
Procedure: as §1

Abs450 (Peptide 25)	Abs450 (Peptide 27)	Abs450 (Peptide 26)	S/N ratio [1]	Abs450 (Peptide 18)	Abs450 (Peptide 16)	Abs450 (Peptide 5)	Abs450 (Peptide 17)	Abs450 (Peptide 8)	Abs450 (Peptide 10)	Abs450 (Peptide 9)	Abs450 (Peptide 15)	Abs450 (Peptide 3)	Abs450 (Peptide 12)	Abs450 (Peptide 7)	Abs450 (Peptide 6)	Abs450 (Peptide 13)	Abs450 (Peptide 14)	Abs450 (Peptide 4)	Abs450 (Peptide 11)	Binder
0.14	2.34	0.14	683	–	–	–	–	–	–	–	–	–	–	–	–	–	–	–	–	K18-624 antibody (antibody, V domains shown, Mouse monoclonal antibody from a hybridoma (Balb/C mouse immunised with Peptide 1-KLH)) VH: DVQLVESGGGLVQPGGSRKLSCAASGFTFSSFGMHWVRQAPEKGLEWVAYISSGSTTIYYADTVKGRFTISRDNPKNTLFLQMTSLRSEDTAMYYCARRGMITTGAWFAYWGQGTLVTVSA VL: DILLTQSPAILSVSPGERVSFSCRASQRIGTSIHWYQQRTNGSPRLLIKYASESISGIPSRFSGSGSGTDFTLSINSVESEDIADYYCQQSYIWPFTFGSGTKLEIK
–	–	–	–	0.02	0.04	-0.01	1.55	-0.01	0	-0.01	0	0.04	0	0	0.01	0.01	-0.01	0.01	0.01	K18-328 antibody (antibody, V domains shown, Mouse monoclonal antibody from a hybridoma (immunogen full length rCK18)) VH: QVHLQQSAAELARPGASVKMSCKASGYTFTNYTIHWIKQRPGQGLEWIGYINPSSGYTDYNQNFKDKTTLTADKSSTTVYMQLSSLTSEDSAVYYCARQIPFAYWGQGTLVTVSA VL: not shown
